Laboratory results reported in article PMC7820951.

Substrate: CC(C)O
Assay: purified protein
Conditions: alcohol oxidation; cofactor F420

B1: ADF (F420-dependent alcohol dehydrogenase) (Methanoculleus thermophilus) (protein)
chain: MKTQIGYFASLEQYRPMDALEQAIRAEKVGFDSVWVDDHFHPWYHDNAQSAQAWAWMGAALQATKKVFISTCITCPIMRYNPAIVAQTFATLRQMYPGRVGVAVGAGEAMNEVPVTGEWPSVPVRQDMTVEAVKVMRMLWESDKPVTFKGDYFTLDKAFLYTKPDDEVPLYFSGMGPKGAKLAGMYGDHLMTVAAAPSTLKNVTIPKFEEGAREAGKDPSKMEHAMLIWYSVDPDYDKAVEALRFWAGCLVPSMFKYKVYDPKEVQLHANLVHCDTIKENYMCATDAEEMIKEIERFKEAGINHFCLGNSSPDVNFGIDIFKEVIPAVRD
  Km: 1300 µM
  kcat: 1.7 s⁻¹
